From US20180155451A1 (published 2018) come the findings set out here.

T1: FcγRIIa H (human, UniProt P12318 34-217)
T1 construct: extracellular domain; also called FcgRIIa H type; 2aH; not shown: His tag at the C terminus
T1 sequence (looked up): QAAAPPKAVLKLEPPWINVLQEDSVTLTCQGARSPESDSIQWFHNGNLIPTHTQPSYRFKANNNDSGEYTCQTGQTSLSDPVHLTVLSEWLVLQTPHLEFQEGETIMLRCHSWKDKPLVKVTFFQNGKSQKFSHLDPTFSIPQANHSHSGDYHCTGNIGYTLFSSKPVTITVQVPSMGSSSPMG

B1: GpH7-A5/GpH7-B3 variant G236_07I/GpL16-k0 (antibody, human IgG1, kappa)
heavy 1: not shown
heavy 2: not shown
light: DIVMTQSPLSLPVTPGEPASISCQASESLVHSNRNTYLHWYLQKPGQSPQLLIYKVSNRFSGVPDRFSGSGSGTDFTLKISRVEAEDVGVYYCSQNTHVPPTFGQGTKVEIERTVAAPSVFIFPPSDEQLKSGTASVVCLLNNFYPREAKVQWKVDNALQSGNSQESVTEQDSKDSTYSLSSTLTLSKADYEKHKVYACEVTHQGLSSPVTKSFNRGEC
notes: also called He Ab G236_07I
B2: GpH7-A5/GpH7-B3 variant K334_07I/GpL16-k0 (antibody, human IgG1, kappa)
heavy 1: not shown
heavy 2: not shown
light: B1 light
notes: also called He Ab K334_07I
B3: GpH7-A5/GpH7-B3 variant S324_20W/GpL16-k0 (antibody, human IgG1, kappa)
heavy 1: not shown
heavy 2: not shown
light: B1 light
notes: also called He Ab S324_20W
B4: GpH7-A5/GpH7-B3 variant K326_06M/GpL16-k0 (antibody, human IgG1, kappa)
heavy 1: not shown
heavy 2: not shown
light: B1 light
notes: also called He Ab K326_06M
B5: GpH7-A5/GpH7-B3 variant K334_08L/GpL16-k0 (antibody, human IgG1, kappa)
heavy 1: not shown
heavy 2: not shown
light: B1 light
notes: also called He Ab K334_08L
B6: GpH7-A5/GpH7-B3 variant L328_02A/GpL16-k0 (antibody, human IgG1, kappa)
heavy 1: not shown
heavy 2: not shown
light: B1 light
notes: also called He Ab L328_02A
B7: GpH7-A5/GpH7-B3 variant I332_13S/GpL16-k0 (antibody, human IgG1, kappa)
heavy 1: not shown
heavy 2: not shown
light: B1 light
notes: also called He Ab I332_13S
B8: GpH7-A5/GpH7-B3 variant T335_15Y/GpL16-k0 (antibody, human IgG1, kappa)
heavy 1: not shown
heavy 2: not shown
light: B1 light
notes: also called He Ab T335_15Y
B9: GpH7-A5/GpH7-B3 variant I336_08L/GpL16-k0 (antibody, human IgG1, kappa)
heavy 1: not shown
heavy 2: not shown
light: B1 light
notes: also called He Ab I336_08L
B10: GpH7-A5/GpH7-B3 variant S324_10E/GpL16-k0 (antibody, human IgG1, kappa)
heavy 1: not shown
heavy 2: not shown
light: B1 light
notes: also called He Ab S324_10E
B11: GpH7-A5/GpH7-B3 variant T335_13S/GpL16-k0 (antibody, human IgG1, kappa)
heavy 1: not shown
heavy 2: not shown
light: B1 light
notes: also called He Ab T335_13S
B12: GpH7-A5/GpH7-B3 variant S267_02A/GpL16-k0 (antibody, human IgG1, kappa)
heavy 1: not shown
heavy 2: not shown
light: B1 light
notes: also called He Ab S267_02A
B13: GpH7-A5/GpH7-B3 variant H268_13S/GpL16-k0 (antibody, human IgG1, kappa)
heavy 1: not shown
heavy 2: not shown
light: B1 light
notes: also called He Ab H268_13S
B14: GpH7-A5/GpH7-B3 variant K334_15Y/GpL16-k0 (antibody, human IgG1, kappa)
heavy 1: not shown
heavy 2: not shown
light: B1 light
notes: also called He Ab K334_15Y
B15: GpH7-A5/GpH7-B3 variant I332_14T/GpL16-k0 (antibody, human IgG1, kappa)
heavy 1: not shown
heavy 2: not shown
light: B1 light
notes: also called He Ab I332_14T
B16: GpH7-A5/GpH7-B3 variant K326_09D/GpL16-k0 (antibody, human IgG1, kappa)
heavy 1: not shown
heavy 2: not shown
light: B1 light
notes: also called He Ab K326_09D
B17: GpH7-A5/GpH7-B3 variant L328_13S/GpL16-k0 (antibody, human IgG1, kappa)
heavy 1: not shown
heavy 2: not shown
light: B1 light
notes: also called He Ab L328_13S
B18: GpH7-A5/GpH7-B3 variant S337_14T/GpL16-k0 (antibody, human IgG1, kappa)
heavy 1: not shown
heavy 2: not shown
light: B1 light
notes: also called He Ab S337_14T
B19: GpH7-A5/GpH7-B3 variant H268_10E/GpL16-k0 (antibody, human IgG1, kappa)
heavy 1: not shown
heavy 2: not shown
light: B1 light
notes: also called He Ab H268_10E
B20: GpH7-A5/GpH7-B3 variant I332_04F/GpL16-k0 (antibody, human IgG1, kappa)
heavy 1: not shown
heavy 2: not shown
light: B1 light
notes: also called He Ab I332_04F
B21: GpH7-A5/GpH7-B3 variant I332_06M/GpL16-k0 (antibody, human IgG1, kappa)
heavy 1: not shown
heavy 2: not shown
light: B1 light
notes: also called He Ab I332_06M
B22: GpH7-A5/GpH7-B3 variant I336_06M/GpL16-k0 (antibody, human IgG1, kappa)
heavy 1: not shown
heavy 2: not shown
light: B1 light
notes: also called He Ab I336_06M
B23: GpH7-A5/GpH7-B3 variant L328_06M/GpL16-k0 (antibody, human IgG1, kappa)
heavy 1: not shown
heavy 2: not shown
light: B1 light
notes: also called He Ab L328_06M
B24: GpH7-A5/GpH7-B3 variant G236_10E/GpL16-k0 (antibody, human IgG1, kappa)
heavy 1: not shown
heavy 2: not shown
light: B1 light
notes: also called He Ab G236_10E
B25: GpH7-A5/GpH7-B3 variant L235_20W/GpL16-k0 (antibody, human IgG1, kappa)
heavy 1: not shown
heavy 2: not shown
light: B1 light
notes: also called He Ab L235_20W
B26: GpH7-A5/GpH7-B3 variant Q295_05P/GpL16-k0 (antibody, human IgG1, kappa)
heavy 1: not shown
heavy 2: not shown
light: B1 light
notes: also called He Ab Q295_05P
B27: GpH7-A5/GpH7-B3 variant K326_19Q/GpL16-k0 (antibody, human IgG1, kappa)
heavy 1: not shown
heavy 2: not shown
light: B1 light
notes: also called He Ab K326_19Q

In the experiment the target is T1, FcγRIIa H. Kind of experiment: SPR Biacore, relative binding.
Consider B1, for which the He/Con_2aH was 115 % of GpH7-A5/GpH7-B3/GpL16-k0 (=100).

B2: the He/Con_2aH was 110 % of GpH7-A5/GpH7-B3/GpL16-k0 (=100). For the molecule B3, the He/Con_2aH was 103 % of GpH7-A5/GpH7-B3/GpL16-k0 (=100).

Turning to B4, the He/Con_2aH was 103 % of GpH7-A5/GpH7-B3/GpL16-k0 (=100).

As for B5, the He/Con_2aH is 104 % of GpH7-A5/GpH7-B3/GpL16-k0 (=100). The figure for B6 is 130 % of GpH7-A5/GpH7-B3/GpL16-k0 (=100); for B7 it is 110 % of GpH7-A5/GpH7-B3/GpL16-k0 (=100). The figure for B8 is 106 % of GpH7-A5/GpH7-B3/GpL16-k0 (=100); for B9 it is 106 % of GpH7-A5/GpH7-B3/GpL16-k0 (=100); for B10 it is 103 % of GpH7-A5/GpH7-B3/GpL16-k0 (=100). Regarding B11, the He/Con_2aH is 106 % of GpH7-A5/GpH7-B3/GpL16-k0 (=100). Take B12: the He/Con_2aH is 120 % of GpH7-A5/GpH7-B3/GpL16-k0 (=100). On to B13, for which the He/Con_2aH is 112 % of GpH7-A5/GpH7-B3/GpL16-k0 (=100). The value for B14 was 106 % of GpH7-A5/GpH7-B3/GpL16-k0 (=100); that for B15 was 115 % of GpH7-A5/GpH7-B3/GpL16-k0 (=100). For B16, the He/Con_2aH is 110 % of GpH7-A5/GpH7-B3/GpL16-k0 (=100). The value for B17 was 123 % of GpH7-A5/GpH7-B3/GpL16-k0 (=100). Take B18: the He/Con_2aH is 103 % of GpH7-A5/GpH7-B3/GpL16-k0 (=100). On to B19, for which the He/Con_2aH was 124 % of GpH7-A5/GpH7-B3/GpL16-k0 (=100). The figure for B20 is 104 % of GpH7-A5/GpH7-B3/GpL16-k0 (=100); for B21 it is 110 % of GpH7-A5/GpH7-B3/GpL16-k0 (=100). Consider B22, for which the He/Con_2aH is 106 % of GpH7-A5/GpH7-B3/GpL16-k0 (=100). The value for B23 was 104 % of GpH7-A5/GpH7-B3/GpL16-k0 (=100); that for B24 was 111 % of GpH7-A5/GpH7-B3/GpL16-k0 (=100).

Consider B25, for which the He/Con_2aH was 118 % of GpH7-A5/GpH7-B3/GpL16-k0 (=100). The value for B26 was 103 % of GpH7-A5/GpH7-B3/GpL16-k0 (=100). The value for B27 was 101 % of GpH7-A5/GpH7-B3/GpL16-k0 (=100).
